The record followed here is PMC6695192.

Assay [1] has as its target EGFP-fused ACBD3 GOLD domain (human) (UniProt Q9H3P7). Put plainly: MST; EGFP-fused GOLD domain at a constant 150 nM, GB1-fused 3A cytoplasmic domain in a series of concentrations; 30 mM Tris pH 7.4, 150 mM NaCl, 3 mM β-mercaptoethanol; Monolith NT.115.
Assay [2] deals with GB1-fused cytoplasmic domain of the enterovirus D68 3A protein, wild type (enterovirus D68). Nature of the assay: SEC. (In general: SEC sorts molecules by how far they enter the pores of the column.)
Assay [3] has as its target GOLD-EVD68 3A fusion protein, wild type (human | enterovirus D68) (UniProt Q9H3P7). Put plainly: […]; 30 mM Tris pH 7.4, 150 mM NaCl, 1 mM TCEP; […].
For assay [4] the target is unchanged. Nature of the assay: SEC.
Assay [5] has as its target GOLD-3A fusion protein LVVY mutant N-terminally fused to mAmetrine or mPlum (UniProt Q9H3P7). Put plainly: FRET by flow cytometry in HeLa cells (self-association of mAmetrine- and mPlum-fused GOLD-3A). Conditions: mean FRET signal at a fixed acceptor signal (dashed line in f, acceptor fluorescence 100 a.u.); three independent experiments; p-value = 0.004; parent: est. …; read off a plot. A general note: A flow cytometer gives signals particle by particle.

For orientation: Kd means the free concentration of one partner at which half of the binding sites on the other are occupied at equilibrium, for simple one-to-one binding. Substance “GB1-fused cytoplasmic domain of the enterovirus A71 3A protein (domain or fragment)” came in with a Kd in assay [1] of 15000 nM. What is called stoichiometry N is a count of units in the complex or per binding partner. The substance “GB1-fused cytoplasmic domain of the enterovirus D68 3A protein, wild type (domain or fragment)” showed a stoichiometry N in assay [2] of 2. The Kd in assay [1] is 1000 nM. On to “GB1-fused cytoplasmic domain of the rhinovirus B14 3A protein (domain or fragment)”, for which, in assay [1], the Kd was found to be 1000 nM. Turning to “GOLD-EVD68 3A fusion protein, wild type (from UniProt Q9H3P7)”, the stoichiometry N in assay [3] and in assay [4] was 2 in each case. Consider “wild-type GOLD-3A fusion protein N-terminally fused to mAmetrine or mPlum (from UniProt Q9H3P7) L25A; V29A; V34A; Y37A”, for which the response in assay [5] is 3.9 a.u.
